Data taken from patent publication US20040253632A1.
Where two headings read alike, the source gives them in different places.

B1: IA^d/OVA complex on OVA peptide-pulsed A20 antigen presenting cells (peptide-MHC, mouse)
MHC II alpha: EDDIEADHVGFYGTTVYQSPGDIGQYTHEFDGDELFYVDLDKKKTVWRLPEFGQLILFEPQGGLQNIAAEKHNLGILTKRSNFTPATNEAPQATVFPKSPVLLGQPNTLICFVDNIFPPVINITWLRNSKSVTDGVYETSFLVNRDHSFHKLSYLTFIPSDDDIYDCKVEHWGLEEPVLKHWEPEIPAPMSELTETVVCALGLSVGLVGIVVGTIFIIQGLRSGGTSRHPGPL
MHC II beta: GNSERHFVVQFKGECYYTNGTQRIRLVTRYIYNREEYVRYDSDVGEYRAVTELGRPDAEYWNSQPEILERTRAEVDTACRHNYEGPETSTSLRRLEQPNVAISLSRTEALNHHNTLVCSVTDFYPAKIKVRWFRNGQEETVGVSSTQLIRNGDWTFQVLVMLEMTPHQGEVYTCHVEHPSLKSPITVEWRAQSESARSKMLSGIGGCVLGVIFLGLGLFIRHRSQKGPRGPPPAGLLQ
peptide: ISQAVHAAHAEINEAGR

Tests used:
Test in all cases: cell-based or functional assay
[1] = target: DO11.10 TCR (endogenous T cell receptor of the DO11.10 T cell hybridoma)
[2] = target: DO11.10 scTCR/murine CD3ζ fusion molecule (membrane-bound, on transfected cells) (mouse) (UniProt P24161)
Sequence of UniProt P24161 (P24161 whole entry, the tested form may be a part): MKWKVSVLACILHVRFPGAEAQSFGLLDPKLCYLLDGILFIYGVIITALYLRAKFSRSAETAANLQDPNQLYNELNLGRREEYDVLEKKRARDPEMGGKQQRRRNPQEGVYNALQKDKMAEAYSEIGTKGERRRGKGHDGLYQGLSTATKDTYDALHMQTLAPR

[3] = target: DO11.10 TCR (endogenous T cell receptor of the DO11.10 T cell hybridoma); remark: listed apart in the source
[4] = target: 2B4 TCR (endogenous T cell receptor of the 2B4 T cell hybridoma) (mouse)
[5] = target: DO11.10 TCR (endogenous T cell receptor of the DO11.10 T cell hybridoma); remark: listed apart in the source
[6] = target: DO11.10 scTCR/murine CD3ζ fusion molecule (membrane-bound, on transfected cells) (mouse) (UniProt P24161); remark: listed apart in the source

| Molecule | IL-2 ELISA value; DO11.10 T cells; 12.5 ng complex/well [1] | IL-2 ELISA value; DO11.10 T cells; 25 ng complex/well [1] | IL-2 ELISA value; DO11.10 T cells; 50 ng complex/well [1] | IL-2 ELISA value; DO11.10 T cells; 100 ng complex/well [1] | IL-2 ELISA value; DO11.10 scTCR 2B4 transfectants; 7 ng complex/well [2] | IL-2 ELISA value; DO11.10 scTCR 2B4 transfectants; 15 ng complex/well [2] | IL-2 ELISA value; DO11.10 scTCR 2B4 transfectants; 31 ng complex/well [2] | IL-2 ELISA value; DO11.10 scTCR 2B4 transfectants; 62 ng complex/well [2] | IL-2 ELISA value; DO11.10 scTCR 2B4 transfectants; 125 ng complex/well [2] | IL-2 ELISA value; DO11.10 scTCR 2B4 transfectants; 250 ng complex/well [2] | IL-2 ELISA value; DO11.10 T cells; 7 ng complex/well [3] | IL-2 ELISA value; DO11.10 T cells; 15 ng complex/well [3] | IL-2 ELISA value; DO11.10 T cells; 31 ng complex/well [3] | IL-2 ELISA value; DO11.10 T cells; 62 ng complex/well [3] | IL-2 ELISA value; DO11.10 T cells; 125 ng complex/well [3] | IL-2 ELISA value; DO11.10 T cells; 250 ng complex/well [3] | other results |
| --- | --- | --- | --- | --- | --- | --- | --- | --- | --- | --- | --- | --- | --- | --- | --- | --- | --- |
| scIA^d/OVA-IgG multimer (scIA^d/OVA-Cκ fusion with scIA^d/OVA-IgG2b heavy chain fusion) (peptide-MHC) | 0.184 A405 | 0.758 A405 | 2.11 A405 | 2.9 A405 |  |  |  |  |  |  |  |  |  |  |  |  |  |
| scIA^d/OVA-IgM fusion (scIA^d/OVA fused to CH2-CH3-CH4 of human IgM heavy chain), multi-valent (from UniProt P01871 106-453) (peptide-MHC) |  |  |  | 1.7 A405 | 0.264 A405 | 0.273 A405 | 1.32 A405 | 1.82 A405 | 2.33 A405 | 2.27 A405 | 0.838 A405 | 1.18 A405 | 1.42 A405 | 1.33 A405 | 1.61 A405 | 1.48 A405 | IL-2 ELISA value; DO11.10 T cells; 0.3 ng complex/well [1]: 0.192 A405; IL-2 ELISA value; DO11.10 T cells; 1 ng complex/well [1]: 0.195 A405; IL-2 ELISA value; DO11.10 T cells; 4 ng complex/well [1]: 0.23 A405; IL-2 ELISA value; DO11.10 T cells; 11 ng complex/well [1]: 0.601 A405; IL-2 ELISA value; DO11.10 T cells; 33 ng complex/well [1]: 1.64 A405; IL-2 ELISA value; DO11.10 T cells; 300 ng complex/well [1]: 0.853 A405; IL-2 ELISA value; BWDZ:CD4+ transfectants; 40 ng complex/well [2]: 0.305 A405; IL-2 ELISA value; BWDZ:CD4+ transfectants; 200 ng complex/well [2]: 0.34 A405; IL-2 ELISA value; BWDZ:CD4+ transfectants; 1000 ng complex/well [2]: 1.28 A405; IL-2 ELISA value; DO11.10 scTCR 2B4 transfectants; 1 ng complex/well [2]: 0.214 A405; IL-2 ELISA value; DO11.10 scTCR 2B4 transfectants; 3 ng complex/well [2]: 0.234 A405; IL-2 ELISA value; DO11.10 T cells; 1 ng complex/well [3]: 0.268 A405; IL-2 ELISA value; DO11.10 T cells; 3 ng complex/well [3]: 0.529 A405 |
| single-chain IA^d linked to HSV-1 glycoprotein D peptide GD 246-261 (scIA^d/GD), monovalent (peptide-MHC) |  |  |  | 0.152 A405 | 0.163 A405 | 0.152 A405 | 0.213 A405 | 0.164 A405 | 0.179 A405 | 0.227 A405 | 0.163 A405 | 0.152 A405 | 0.213 A405 | 0.164 A405 | 0.179 A405 | 0.18 A405 |  |
| single-chain IA^d linked to OVA 323-339 (scIA^d/OVA), monovalent (peptide-MHC) | 0.176 A405 | 0.209 A405 | 1.19 A405 | 3.06 A405 | 0.236 A405 | 0.397 A405 | 0.646 A405 | 1.03 A405 | 1.06 A405 | 1.06 A405 | 0.236 A405 | 0.397 A405 | 0.646 A405 | 1.03 A405 | 1.06 A405 | 0.665 A405 | mean IL-2 absorbance reading of eight DMSO control wells (assay plate 5-2); DO11.10 T cells on 50 ng/well scIA^d/OVA [1]: 2.2 A450 |
| single-chain IE^k linked to PCC 88-104 (scIE^k/PCC) (peptide-MHC) |  |  |  |  |  |  |  |  |  |  |  |  |  |  |  |  | IL-2 ELISA absorbance; 2B4 T cells; 12.5 ng/well immobilized scIE^k/PCC [4]: 0.054 A450; IL-2 ELISA absorbance; 2B4 T cells; 25 ng/well immobilized scIE^k/PCC [4]: 0.081 A450; IL-2 ELISA absorbance; 2B4 T cells; 50 ng/well immobilized scIE^k/PCC [4]: 0.234 A450; IL-2 ELISA absorbance; 2B4 T cells; 100 ng/well immobilized scIE^k/PCC [4]: 0.413 A450; IL-2 ELISA absorbance; 2B4 T cells; 200 ng/well immobilized scIE^k/PCC [4]: 0.485 A450; IL-2 ELISA absorbance; 2B4 T cells; 400 ng/well immobilized scIE^k/PCC [4]: 0.216 A450 |
| B1 |  |  |  |  |  |  |  |  |  |  |  |  |  |  |  |  | IL-2 ELISA value; DO11.10 T cells with OVA peptide-loaded A20 cells; 0 µM compound 12G9 [5]: 1.91 A405; IL-2 ELISA value; DO11.10 T cells with OVA peptide-loaded A20 cells; 0 µM compound 211-C3 [5]: 2.02 A405; IL-2 ELISA value; DO11.10 T cells with OVA peptide-loaded A20 cells; 0 µM compound 211-C9 [5]: 2.02 A405; IL-2 ELISA value; DO11.10 T cells with OVA peptide-loaded A20 cells; 0 µM compound 211B9 [5]: 1.92 A405; IL-2 production of BW/DZ cells with full-length CD4 (BWDZ:CD4+) relative to DO11.10 cells; OVA peptide-mixed A20 APCs [6]: 75 to 80%; IL-2 production of BW/DZ cells with truncated CD4 lacking the cytoplasmic domain (BWDZ:deltaCM) relative to DO11.10 cells; OVA peptide-mixed A20 APCs [6]: 10% |
